Reference: paper PMC6232143

How the values were obtained:
[1] = target: TssA1^B CTD (303-373) (B. cenocepacia); assay: crystal structure; TssA1^B CTD (303-373), 3.08 Å, spacegroup I222, eight monomers in the asymmetric unit
[2] = target: His6.TssA2^A CTD (381-478) (A. hydrophila); assay: SEC-MALS; S200 10/300 column, 50 mM Tris.HCl (pH 8.0), 500 mM NaCl, ~20 °C; 4.5-6.8 mg/ml
[3] = target: Native TssA1^B (1-373) (B. cenocepacia); assay: SEC-MALS; Superose-6 10/300 column, 10 mM phosphate buffer (pH 7.4), 2.7 mM KCl, 137 mM NaCl, ~20 °C
[4] = target: His6.TssA2^A (1-478) (A. hydrophila); assay: SEC-MALS; S200 10/300 column, 50 mM Tris.HCl (pH 8.0), 500 mM NaCl, ~20 °C; 4.5-6.8 mg/ml
[5] = target: TssA2^A Nt1-Nt2.His6 (231-374) (A. hydrophila); assay: crystal structure; TssA2^A Nt2 (231-374) from the Nt1-Nt2.His6 construct, 1.76 Å, four molecules in the asymmetric unit
[6] = target: TssA1^B CTD fragment (303-347) (B. cenocepacia); assay: crystal structure; TssA1^B CTD fragment 303-347 (clipped 303-373 construct), 1.78 Å, spacegroup I222
[7] = target: His6.TssA1^B CTD H12-H14 (303-358) (B. cenocepacia); assay: crystal structure; His6.TssA1^B CTD H12-H14 (303-358), 2.35 Å, two molecules in the asymmetric unit
[8] = target: His6.TssA2^A Nt2 (223-387) (A. hydrophila); assay: crystal structure; His6.TssA2^A Nt2 (223-387), ethyl mercury phosphate derivative, 2.16 Å, two monomers in the asymmetric unit
[9] = target: His6.TssA2^A Nt2-CTD (223-478) (A. hydrophila); assay: crystal structure; His6.TssA2^A Nt2-CTD (223-478), 3.13 Å, ten subunits in the asymmetric unit
[10] = target: His6.TssA2^A Nt2-CTD (223-478) (A. hydrophila); assay: SEC-MALS; S200 10/300 column, 50 mM Tris.HCl (pH 8.0), 500 mM NaCl, ~20 °C; 4.5-6.8 mg/ml

Substance “TssA1^B CTD (303-373) (domain or fragment)” has a stoichiometry N [1] of 32 subunits.

In the case of “His6.TssA2^A CTD (381-478) (domain or fragment)”, the stoichiometry N [2] was 10.

For “Native TssA1^B (1-373) (natural protein)”, the stoichiometry N [3] was 30 subunits.

His6.TssA2^A (1-478) (natural protein) was tested, and the stoichiometry N [4] was 10.

Work on “TssA2^A Nt1-Nt2.His6 (231-374) (domain or fragment)” yielded a stoichiometry N [5] of 2.

In the case of “TssA1^B CTD fragment (303-347) (domain or fragment)”, the stoichiometry N [6] was 2.

“His6.TssA1^B CTD H12-H14 (303-358) (domain or fragment)” was tested, and the stoichiometry N [7] was 2.

Work on “His6.TssA2^A Nt2 (223-387) (domain or fragment)” yielded a stoichiometry N [8] of 2.

With “His6.TssA2^A Nt2-CTD (223-478) (domain or fragment)” the stoichiometry N [9] was 10 and the stoichiometry N [10] was 10.
